# Biological target: CD8 on peripheral blood T cells (UniProt P01732)
# Assay: cell-based or functional assay
substance,measurement,value
"gp180, mAb B9 affinity-purified material from T84 cells (from UniProt P06731 35-685)",killing in a CTL assay testing alloreactive CTL,< 15%

# Reference: patent publication US20050053613A1
